From patent US7507799

How the values were obtained:
[1] = tested on: His-tagged cleavage resistant pro-NGF (point mutant, K-R cleavage site at 120,121 mutated to A-A)
[2] = tested on: T1, rat BDNF secreted by adenovirus-infected 293T or endothelial cells (proforms of 30 kDa and 28 kDa)
T1 sequence: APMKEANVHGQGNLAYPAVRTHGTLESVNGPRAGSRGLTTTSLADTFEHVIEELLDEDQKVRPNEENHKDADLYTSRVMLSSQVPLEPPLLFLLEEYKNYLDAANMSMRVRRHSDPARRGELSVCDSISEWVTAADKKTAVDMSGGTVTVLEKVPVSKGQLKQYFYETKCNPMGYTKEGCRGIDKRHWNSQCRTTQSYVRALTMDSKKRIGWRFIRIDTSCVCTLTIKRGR

B1: MMP-7 (enzyme, UniProt P09237 95-267, looked up, species assumed)
Matrilysin: YSLFPNSPKWTSKVVTYRIVSYTRDLPHITVDRLVSKALNMWGKEIPLHFRKVVWGTADIMIGFARGAHGDSYPFDGPGNTLAHAFAPGTGLGGDAHFDEDERWTDGSSLGINFLYAATHELGHSLGMGHSSDPNAVMYPTYGNGDPQNFKLSQDDIKGIQKLYGKRSNSRKK
- proteolytic cleavage, Western blot [1]: incubation of the pro-NGF with MMP-7 but not MMP-2, -3, or -9 resulted in cleavage of the 30 kD proform of NGF to the 17 kD form
- proteolytic cleavage in endothelial media, Western blot [2]: In endothelial media, only plasmin and MMP-7 appeared to cleave the large proform
- proteolytic cleavage, Western blot [2]: Treatment of the media with recombinant MMP7 resulted in a reduction in the high molecular weight isoforms of 30 kDa or 28 kDa, and the generation of a novel form of approximately 17 kDa
